# System: Escherichia coli TOP10
# Assay: shrunken log2 fold change of peptide-encoding DNA abundance (4.5 h post-induction vs induction); higher = less antimicrobial activity (less host growth inhibition)
# Conditions: time post-induction: 4.5 h; library: site-saturation at positions 5, 18, 19, 20
# 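Note: peptides expressed intracellularly from a pBAD plasmid library in pooled LB shake-flask culture, induced with 0.3% L-arabinose, DNA abundance read by NGS, three biological replicates, DESeq2 with apeglm shrinkage.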
row,Sequence,shrunken log2 fold change
1,RRIRDRPPRLPRPRPRPPCVPRP,0.152
2,RRIRARPPRLPRPRPRPDHMPRP,-0.328
3,RRIRHRPPRLPRPRPRPKPFPRP,0.0272
4,RRIRKRPPRLPRPRPRPNPHPRP,0.188
5,RRIRCRPPRLPRPRPRPGQEPRP,0.094
6,RRIRTRPPRLPRPRPRPWDWPRP,0.00763
7,RRIRRRPPRLPRPRPRPKLLPRP,0.178
8,RRIRSRPPRLPRPRPRPPHDPRP,0.277
9,RRIRMRPPRLPRPRPRPTICPRP,0.0136
10,RRIRARPPRLPRPRPRPMSIPRP,-0.118
11,RRIRVRPPRLPRPRPRPGHVPRP,0.0316
12,RRIRERPPRLPRPRPRPKVLPRP,0.0059
13,RRIRKRPPRLPRPRPRPGKWPRP,0.184
14,RRIRQRPPRLPRPRPRPADDPRP,-0.01
15,RRIRVRPPRLPRPRPRPGGNPRP,-0.0392
16,RRIRFRPPRLPRPRPRPAHDPRP,0.0907
17,RRIRSRPPRLPRPRPRPYEEPRP,-0.932
18,RRIRLRPPRLPRPRPRPQFPPRP,0.172
19,RRIRMRPPRLPRPRPRPSVYPRP,-0.335
20,RRIRWRPPRLPRPRPRPRICPRP,-0.0691
21,RRIRPRPPRLPRPRPRPCISPRP,-0.0753
22,RRIRTRPPRLPRPRPRPCWAPRP,-0.0904
23,RRIRFRPPRLPRPRPRPEMPPRP,-0.142
24,RRIRPRPPRLPRPRPRPFHKPRP,-0.453
25,RRIRHRPPRLPRPRPRPAMNPRP,-0.0974

row,Sequence,shrunken log2 fold change
1,RRIRGRPPRLPRPRPRPDWGPRP,0.242
2,RRIRTRPPRLPRPRPRPDRSPRP,-0.287
3,RRIRFRPPRLPRPRPRPELFPRP,0.15
4,RRIRYRPPRLPRPRPRPSDSPRP,-0.191
5,RRIRHRPPRLPRPRPRPHHVPRP,-0.35
6,RRIRTRPPRLPRPRPRPWAAPRP,-0.0363
7,RRIRARPPRLPRPRPRPSNGPRP,-0.318
8,RRIRSRPPRLPRPRPRPHCRPRP,-0.172
9,RRIRCRPPRLPRPRPRPTQNPRP,0.803
10,RRIRSRPPRLPRPRPRPTWKPRP,0.286
11,RRIRQRPPRLPRPRPRPSLWPRP,0.337
12,RRIRERPPRLPRPRPRPLGEPRP,0.0918
13,RRIRFRPPRLPRPRPRPDSEPRP,0.104
14,RRIRRRPPRLPRPRPRPWWWPRP,0.184
15,RRIRSRPPRLPRPRPRPWHRPRP,-0.024
16,RRIRRRPPRLPRPRPRPAIPPRP,-0.0158
17,RRIRGRPPRLPRPRPRPTPFPRP,0.629
18,RRIRMRPPRLPRPRPRPYFPPRP,-0.213
19,RRIRDRPPRLPRPRPRPPESPRP,0.822
20,RRIRSRPPRLPRPRPRPILTPRP,-0.125
21,RRIRTRPPRLPRPRPRPQFGPRP,-0.00643
22,RRIRVRPPRLPRPRPRPCTGPRP,-1.78
23,RRIRWRPPRLPRPRPRPQRHPRP,0.163
24,RRIRQRPPRLPRPRPRPQFEPRP,-0.0143
25,RRIRFRPPRLPRPRPRPNVCPRP,-0.0089

row,Sequence,shrunken log2 fold change
1,RRIRNRPPRLPRPRPRPKPEPRP,0.0739
2,RRIRLRPPRLPRPRPRPIYVPRP,-0.0939
3,RRIRHRPPRLPRPRPRPQVCPRP,-0.0115
4,RRIRNRPPRLPRPRPRPLGMPRP,-0.109
5,RRIRQRPPRLPRPRPRPYITPRP,-0.0324
6,RRIRYRPPRLPRPRPRPNSVPRP,-0.257
7,RRIRGRPPRLPRPRPRPKWTPRP,0.392
8,RRIRGRPPRLPRPRPRPGGIPRP,0.402
9,RRIRFRPPRLPRPRPRPFWTPRP,-0.257
10,RRIRVRPPRLPRPRPRPPAIPRP,0.376
11,RRIRQRPPRLPRPRPRPNSPPRP,-0.0178
12,RRIRLRPPRLPRPRPRPYQPPRP,-0.582
13,RRIRCRPPRLPRPRPRPQMAPRP,-0.117
14,RRIRCRPPRLPRPRPRPMMSPRP,-0.0652
15,RRIRWRPPRLPRPRPRPNRNPRP,-0.602
16,RRIRPRPPRLPRPRPRPDQIPRP,-0.265
17,RRIRPRPPRLPRPRPRPMMDPRP,0.0321
18,RRIRFRPPRLPRPRPRPMGMPRP,-0.0492
19,RRIRWRPPRLPRPRPRPWLHPRP,-0.0248
20,RRIRTRPPRLPRPRPRPFDAPRP,-0.343
21,RRIRARPPRLPRPRPRPGDLPRP,0.796
22,RRIRTRPPRLPRPRPRPRTCPRP,1.21
23,RRIRTRPPRLPRPRPRPWCTPRP,-0.275
24,RRIRIRPPRLPRPRPRPILQPRP,-0.146
25,RRIRFRPPRLPRPRPRPFSYPRP,-0.777

# From the supplement of paper PMC9112550, “Optimization of the antimicrobial peptide Bac7 by deep mutational scanning” (BMC Biology, 2022)
